To fix the notation:
B1: library; numbered along this chain (parent)
chain: MRKPRAAVGSGHRKQAASQEGRQKHAKNNSQAKPSACDGLARQPEEVVLQASVSSYHLFRDVAEVTAFRGSLLSWYDQEKRDLPWRRRAEDEMDLDRRAYAVWVSEVMLQQTQVATVINYYTGWMQKWPTLQDLASASLEEVNQLWAGLGYYSRGRRLQEGARKVVEELGGHMPRTAETLQQLLPGVGRYTAGAIASIAFGQATGVVDGNVARVLCRVRAIGADPSSTLVSQQLWGLAQQLVDPARPGDFNQAAMELGATVCTPQRPLCSQCPVESLCRARQRVEQEQLLASGSLSGSPDVEECAPNTGQCHLCLPPSEPWDQTLGVVNFPRKASRKPPREESSATCVLEQPGALGAQILLVQRPNSGLLAGLWEFPSVTWEPSEQLQRKALLQELQRWAGPLPATHLRHLGEVVHTFSHIKLTYQVYGLALEGQTPVTTVPPGARWLTQEEFHTAAVSTAMKKVFRVYQGQQPGTCMGSKRSQVSSPCSRKKPRMGQQVLDNFFRSHISTDAHSLNSAAQ
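Also: cells sorted at 72 h after reporter transfection.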

The data set covers variants of B1. The data set can be described thus: 8OG:A repair function score (normalized; synonymous = 0, nonsense = -1) (normalized log-likelihood score); higher = more repair activity (WT-like). The settings on record: with 8OG:A DNA repair reporter (GFP) in HEK-293 MUTYH KO cells. The method, boiled down: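 Lentiviral MUTYH cDNA NNN codon-scan libraries were expressed in MUTYH knockout HEK-293 cells with 10 pg/ml doxycycline, and the cells received an 8OG:A GFP repair reporter together with mCherry. At 72 h, viable mCherry+ cells went into GFP+ (repair) or GFP− bins, three replicates per tile, before tile amplicons were sequenced. A repair function score was then built from per-tile Rosace fitness scores, anchored on the synonymous and nonsense distributions. Synonymous medians sat at 0 and nonsense at -1, and variants under 300 counts per million at the start were left out.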
As for MRKPRAAVGSGHRKQAASQEGRQKHAKNNSQAKPSACDGLARQPEEVVLQASVSSYHLFRDVAEVTAFRGSLLSWYDQEKRDLPWRRRAEDEMDLDRRAYAVWVSEVMLQQTQVATVINYYTGWMQKWPTLQDLASASLEEVNQLWAGLGYYSRGRRLQEGARKVVEELGGHMPRTAETLQQLLPGVGRYTAGAIASIAFGQATGVVDGNVARVLCRVRAIGADPSSTLVSQQLWGLAQQLVDPARPGDFNQAAMELGATVCTPQRPLCSQCPVESLCRARQRVEQEQLLASGSLSGSPDVEECAPNTGQCHLCLPPSEPWDQTLGVVNFPRKASRKPPREESSATCVLEQPGALGAQILLVQRPNSGLLAGLWEFPSVTWEPSEQLQRKALLQELQFWAGPLPATHLRHLGEVVHTFSHIKLTYQVYGLALEGQTPVTTVPPGARWLTQEEFHTAAVSTAMKKVFRVYQGQQPGTCMGSKRSQVSSPCSRKKPRMGQQVLDNFFRSHISTDAHSLNSAAQ [R398F], the “8OG:A repair function score” value was found to be 0.214.
On to MRKPRAAVGSGHRKQAASQEGRQKHAKNNSQAKPSACDGLARQPEEVVLQASVSSYHLFRDVAEVTAFRGSLLSWYDQEKRDLPWRRRAEDEMDLDRRAYAVWVSEVMLQQTQVATVINYYTGWMQKWPTLQDLASASLEEVNQLWAGLGYYPRGRRLQEGARKVVEELGGHMPRTAETLQQLLPGVGRYTAGAIASIAFGQATGVVDGNVARVLCRVRAIGADPSSTLVSQQLWGLAQQLVDPARPGDFNQAAMELGATVCTPQRPLCSQCPVESLCRARQRVEQEQLLASGSLSGSPDVEECAPNTGQCHLCLPPSEPWDQTLGVVNFPRKASRKPPREESSATCVLEQPGALGAQILLVQRPNSGLLAGLWEFPSVTWEPSEQLQRKALLQELQRWAGPLPATHLRHLGEVVHTFSHIKLTYQVYGLALEGQTPVTTVPPGARWLTQEEFHTAAVSTAMKKVFRVYQGQQPGTCMGSKRSQVSSPCSRKKPRMGQQVLDNFFRSHISTDAHSLNSAAQ [S153P], for which the “8OG:A repair function score” value is 0.0253.
As to MRKPRAAVGSGHRKQAASQEGRQKHAKNNSQAKPSACDGLARQPEEVVLQASVSSYHLFRDVAEVTAFRGSLLSWYDQEKRDLPWRRRAEDEMDLDRRAYAVWVSEVMLQQTQVATVINYYTGGMQKWPTLQDLASASLEEVNQLWAGLGYYSRGRRLQEGARKVVEELGGHMPRTAETLQQLLPGVGRYTAGAIASIAFGQATGVVDGNVARVLCRVRAIGADPSSTLVSQQLWGLAQQLVDPARPGDFNQAAMELGATVCTPQRPLCSQCPVESLCRARQRVEQEQLLASGSLSGSPDVEECAPNTGQCHLCLPPSEPWDQTLGVVNFPRKASRKPPREESSATCVLEQPGALGAQILLVQRPNSGLLAGLWEFPSVTWEPSEQLQRKALLQELQRWAGPLPATHLRHLGEVVHTFSHIKLTYQVYGLALEGQTPVTTVPPGARWLTQEEFHTAAVSTAMKKVFRVYQGQQPGTCMGSKRSQVSSPCSRKKPRMGQQVLDNFFRSHISTDAHSLNSAAQ [W124G], the “8OG:A repair function score” value was -0.892.
Then MRKPRAAVGSGHRKQAASQEGRQKHAKNNSQAKPSACDGLARQPEEVVLQASVSSYHLFRDVAEVTAFRGSLLSWYDQEKRDLPWRRRAEDEMDLDRRAYAVWVSEVMLQQTQVATVINYYTGWMQKWPTLQDLASASLEEVNQLWAGLGYYSRGRRLQEGARKVVEELGGHMPRTAETLQQLLPGVGRYTAGAIASIAFGQATGVVDGNVARVLCRVRAIGADPSSTLVSQQLWGLAQQLVDPARPGDFNQAAMELGATVCTPQRPLCSQCPVESLCRARQRVEQEQLLASGSLSGSPDVEECAPNTGQCHLCLPPSEPWDQTLGVVNFPRKASRKPPREESSATCVLEQPGALGAQILLVQRPNSGLLAGLWEFPSVTWEPSEQLQRKALLQELQRWAGPLPATHLRHLGEVVHTFSHIKLTYQVYGLALEGQTPVTTVPPGARWLTQEEFHTAAVSTAMKKVFRVYQGQQPGTCMGSKRSQVSSPCSRKKPRMGQQVLDNFFRSHISTDAHSLNSAAN [Q521N], with 0.00751; and MRKPRAAVGSGHRKQAASQEGRQKHAKNNSQAKPSACDGLARQPEEVVLQASVSSYHLFRDVAEVTAFRGSLLSWYDQEKRDLPWRRRAEDEMDLDRRAYAVWVSEVMLQQTQVATVINYYTGWMQKWPTLQDLASASLEEVNQLWAGLGYYSRGRRLQEGARKVVEELGGHMPRTAETLQQLLPGVGRYTAGAIASIAFGQATGVVDGNVARVLCRVRAIGADPSSTLVSQQLWGLAQQLVDPARPGDFNQAAMELGATVCTPQRPLCSQCPVESECRARQRVEQEQLLASGSLSGSPDVEECAPNTGQCHLCLPPSEPWDQTLGVVNFPRKASRKPPREESSATCVLEQPGALGAQILLVQRPNSGLLAGLWEFPSVTWEPSEQLQRKALLQELQRWAGPLPATHLRHLGEVVHTFSHIKLTYQVYGLALEGQTPVTTVPPGARWLTQEEFHTAAVSTAMKKVFRVYQGQQPGTCMGSKRSQVSSPCSRKKPRMGQQVLDNFFRSHISTDAHSLNSAAQ [L277E], with -0.204.
For MRKPRAAVGSGHRKQAASQEGRQKHAKNNSQAKPSACDGLARQPEEVVLQASVSSYHLFRDVAEVTAFRGSLLSWYDQEKRDLPWRRRAEDEMDLDRRAYAVWVSEVMLQQTQVATVINYYTGWMQKWPTLQDLASASLEEVNQLWAGLGYYSRGRRLQEGARKVVEELGGHMPRTAETLQQLLPGVGRYTAGAIASIAFGQATGVVDGNVARVLCRVRAIGADPSSTLVSQQLWGLAQQLVDPARPGDFNQAAMELGATVCTPQRPLCSQCPVESLCRARQRVEQEQLLASGSLSGSPDVEECAPNTGQCHLCLPPSEPWDQTLGVVNFPRKASRKPPREESSATCVLEQPGALGAQILLVQRPNSGLLAGLWEFPSVTWEPSEQLQRKALLQELQRWAGPLPATHLRHLGEVVHTFSHIKLTYQVYGLALEGQTPVTTVPPGARWLTQEEFHTAAVSTAMKKVFRVYQGQQPGTCMGSKRSQVSSPCSRKKPRMGQQVLDNFFRSHISTCAHSLNSAAQ [D512C] the value was 0.0193.
